B1: huNRG1(S177-F229) 6xHis: 6xHis-tagged NRG1 fragment S177-F229 without variant mutations (protein)
chain: SHLVKCAEKEKTFCVNGGECFMVKDLSNPSRYLCKCPNEFTGDRCQNYVMASFGGGGEGGGGAGGGGHHHHHH
modifications: 6xHis tag; huNRG1(S177-F229) 6xHis
notes: 6xHis-tagged NRG1 fragment S177-F229 without variant mutations
B2: huNRG1(S177-F229)(NRGE1D) (E47K_D48L_F49D_M50I) 6xHis: 6xHis-tagged NRG1 variant SEQ ID NO:127 (protein)
chain: SHLVKCGESHKSFCVNGGECYMVEGSSIPSRYLCKCPNEFTGDRCQKLDIASFGGGGEGGGGAGGGGHHHHHH
modifications: 6xHis tag; huNRG1(S177-F229)(NRGE1D) (E47K_D48L_F49D_M50I) 6xHis
B3: huNRG1(S177-F229)(NRGE1D) (E47S_D48S_F49E_M50L) 6xHis: 6xHis-tagged NRG1 variant SEQ ID NO:128 (protein)
chain: B2 chain with K47S, L48S, D49E, I50L
modifications: 6xHis tag; huNRG1(S177-F229)(NRGE1D) (E47S_D48S_F49E_M50L) 6xHis
B4: huNRG1(S177-F229)(NRGE1D) (E47V_D48T_F49R_M50L) 6xHis: 6xHis-tagged NRG1 variant SEQ ID NO:130 (protein)
chain: B2 chain with K47V, L48T, D49R, I50L
modifications: 6xHis tag; huNRG1(S177-F229)(NRGE1D) (E47V_D48T_F49R_M50L) 6xHis
B5: huNRG1(S177-F229)(NRGE1D) (E47T_D48S_F49L_M50L) 6xHis: 6xHis-tagged NRG1 variant SEQ ID NO:129 (protein)
chain: B2 chain with K47T, L48S, D49L, I50L
modifications: 6xHis tag; huNRG1(S177-F229)(NRGE1D) (E47T_D48S_F49L_M50L) 6xHis
B6: :huFcSEFL2(desK)vl31(+):G4SG4:huNRG1(S177-F229)(NRGE1C): N-terminal Fc fusion of NRG1 variant SEQ ID NO:117 (protein)
chain: DKTHTCPPCPAPELLGGPSVFLFPPKPKDTLMISRTPEVTCVVVDVSHEDPEVKFNWYVDGVEVHNAKTKPCEEQYGSTYRCVSVLTVLHQDWLNGKEYKCKVSNKALPAPIEKTISKAKGQPREPQVYTLPPSREKMTKNQVSLTCLVKGFYPSDIAVEWESNGQPENNYKTTPPVLKSDGSFFLYSKLTVDKSRWQQGNVFSCSVMHEALHNHYTQKSLSLSPGGGGGSGGGGSHLVKCGEKHKSFCVNGGECFMIEGPSNPSRYLCKCPNEFTGDRCQEDFMASFDKTHTCPPCPAPELLGGPSVFLFPPKPKDTLMISRTPEVTCVVVDVSHEDPEVKFNWYVDGVEVHNAKTKPCEEQYGSTYRCVSVLTVLHQDWLNGKEYKCKVSNKALPAPIEKTISKAKGQPREPQVYTLPPSREEMTENQVSLTCLVEGFYPSDIAVEWESNGQPENNYETTPPVLDSDGSFFLYSDLTVDKSRWQQGNVFSCSVMHEALHNHYTQKSLSLSPGK
modifications: huFcSEFL2(desK)v131(+)G4SG4huNRG1(S177-F229) (NRGE1C)
B7: :huFcSEFL2(desK)vl31(+):G4SG4:huNRG1(S177-F229)(NRGE1D): N-terminal Fc fusion of NRG1 variant SEQ ID NO:126 (protein)
chain: B6 chain with K244S, F256Y, I258V, P261S, N263I
modifications: huFcSEFL2(desK)v131(+)G4SG4huNRG1(S177-F229) (NRGE1D)

These results are taken from patent US12692294B2, “Engineered NRG-1 variants with improved selectivity toward ErbB4 but not against ErbB3” (Amgen Inc., priority 2021, dated 2026).

Numbering of substitutions follows the chain as printed.

In the first assay the target is T1, ErbB4 (Rattus norvegicus, UniProt Q62956).
T1 construct: forming the ErbB2/ErbB4 complex in cardiomyocytes and the ErbB2/ErbB3 complex in Schwann cells; endogenous in cells; host or cells: primary neonatal rat cardiomyocytes (Sprague Dawley pups, 0 to 4 days old)
T1 sequence (Q62956 26-1308): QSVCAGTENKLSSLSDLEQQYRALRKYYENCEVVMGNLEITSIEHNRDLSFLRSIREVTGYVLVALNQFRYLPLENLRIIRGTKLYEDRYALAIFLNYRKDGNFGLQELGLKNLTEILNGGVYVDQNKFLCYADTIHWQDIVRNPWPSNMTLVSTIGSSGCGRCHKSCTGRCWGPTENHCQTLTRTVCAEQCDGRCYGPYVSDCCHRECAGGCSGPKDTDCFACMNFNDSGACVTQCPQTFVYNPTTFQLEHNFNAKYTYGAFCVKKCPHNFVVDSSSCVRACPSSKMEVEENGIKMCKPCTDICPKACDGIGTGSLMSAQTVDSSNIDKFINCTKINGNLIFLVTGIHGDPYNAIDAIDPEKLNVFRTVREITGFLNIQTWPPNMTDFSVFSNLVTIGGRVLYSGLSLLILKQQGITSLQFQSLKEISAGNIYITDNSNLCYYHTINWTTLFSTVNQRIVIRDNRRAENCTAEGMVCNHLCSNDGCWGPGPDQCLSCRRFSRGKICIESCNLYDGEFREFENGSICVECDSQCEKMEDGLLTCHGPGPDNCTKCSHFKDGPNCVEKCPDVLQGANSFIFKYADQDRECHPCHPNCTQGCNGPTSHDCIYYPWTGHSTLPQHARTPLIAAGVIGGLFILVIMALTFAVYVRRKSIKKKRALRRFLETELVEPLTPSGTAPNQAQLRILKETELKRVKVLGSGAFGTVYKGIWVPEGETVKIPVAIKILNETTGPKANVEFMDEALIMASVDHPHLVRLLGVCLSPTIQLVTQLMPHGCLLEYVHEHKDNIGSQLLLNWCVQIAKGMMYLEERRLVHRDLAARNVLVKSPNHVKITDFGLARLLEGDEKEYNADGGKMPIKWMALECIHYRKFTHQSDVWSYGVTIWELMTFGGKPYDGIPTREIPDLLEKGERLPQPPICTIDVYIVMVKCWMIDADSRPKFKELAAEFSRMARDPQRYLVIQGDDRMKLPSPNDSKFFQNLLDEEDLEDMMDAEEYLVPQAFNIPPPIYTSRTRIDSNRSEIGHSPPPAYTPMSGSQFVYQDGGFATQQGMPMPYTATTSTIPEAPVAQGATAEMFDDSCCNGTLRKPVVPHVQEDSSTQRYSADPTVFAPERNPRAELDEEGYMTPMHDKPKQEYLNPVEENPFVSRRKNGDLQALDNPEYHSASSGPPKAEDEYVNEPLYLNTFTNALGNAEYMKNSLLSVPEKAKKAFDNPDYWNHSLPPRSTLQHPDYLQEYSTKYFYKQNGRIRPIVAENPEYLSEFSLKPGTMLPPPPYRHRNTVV
T1 sequence (P06494 23-1257 partner): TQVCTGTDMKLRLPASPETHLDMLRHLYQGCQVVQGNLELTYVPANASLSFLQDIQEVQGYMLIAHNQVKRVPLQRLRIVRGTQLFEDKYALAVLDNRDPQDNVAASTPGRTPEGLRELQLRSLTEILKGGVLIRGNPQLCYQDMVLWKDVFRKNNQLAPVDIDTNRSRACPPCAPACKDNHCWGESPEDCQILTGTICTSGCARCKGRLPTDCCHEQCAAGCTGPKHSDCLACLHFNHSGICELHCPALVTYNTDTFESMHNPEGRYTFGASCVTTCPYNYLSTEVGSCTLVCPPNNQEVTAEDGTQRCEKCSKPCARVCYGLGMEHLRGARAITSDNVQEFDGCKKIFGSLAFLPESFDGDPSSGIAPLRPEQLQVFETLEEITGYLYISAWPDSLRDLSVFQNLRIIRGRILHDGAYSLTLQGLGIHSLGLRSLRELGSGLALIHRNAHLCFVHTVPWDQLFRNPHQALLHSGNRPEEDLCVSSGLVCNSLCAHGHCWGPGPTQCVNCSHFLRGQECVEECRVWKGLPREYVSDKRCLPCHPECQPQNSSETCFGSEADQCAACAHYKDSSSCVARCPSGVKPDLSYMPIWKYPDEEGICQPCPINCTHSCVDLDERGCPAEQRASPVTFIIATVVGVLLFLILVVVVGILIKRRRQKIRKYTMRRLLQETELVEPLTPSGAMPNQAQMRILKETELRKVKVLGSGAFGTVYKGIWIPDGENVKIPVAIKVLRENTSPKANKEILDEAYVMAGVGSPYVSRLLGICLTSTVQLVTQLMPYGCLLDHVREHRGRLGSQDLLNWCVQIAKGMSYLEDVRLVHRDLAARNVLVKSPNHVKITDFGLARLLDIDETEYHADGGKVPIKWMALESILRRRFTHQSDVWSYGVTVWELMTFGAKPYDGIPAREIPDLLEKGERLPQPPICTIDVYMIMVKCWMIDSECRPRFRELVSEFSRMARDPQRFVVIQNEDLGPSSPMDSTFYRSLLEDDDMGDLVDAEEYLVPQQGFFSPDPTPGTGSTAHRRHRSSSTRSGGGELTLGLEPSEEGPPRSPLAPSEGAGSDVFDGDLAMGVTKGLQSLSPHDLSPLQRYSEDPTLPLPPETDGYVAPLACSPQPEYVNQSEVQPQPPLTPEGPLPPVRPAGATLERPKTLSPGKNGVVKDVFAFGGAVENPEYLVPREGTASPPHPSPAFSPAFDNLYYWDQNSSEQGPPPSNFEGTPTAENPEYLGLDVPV
Briefly: In vitro phosphorylation of Akt in neonatal rat cardiomyocytes. Particulars: Akt (Serine 473) phosphorylation, neonatal rat cardiomyocytes, 15 minutes treatment; read-out: Cardiomyocyte (CM) (ErbB4) Avg EC50. The class given is cell-based. How it is done: (§1) In Vitro Phosphorylation of Akt in Neonatal Rat Cardiomyocytes and Rat Schwann Cells by Neuregulin Variants
(§2) Specificity of neuregulin variants towards cardiomyocytes (ErbB4) versus Schwann cells (ErbB3) was tested by measuring Akt activity generated by formation of the ErbB2/ErbB4 and ErbB2/ErbB3 complexes. Upon activation by neuregulin, the ErbB4 and ErbB3 receptors dimerize preferentially with the ErbB2 co-receptor, forming the ErbB2/ErbB4 complex in cardiomyocytes and the ErbB2/ErbB3 complex in Schwann cells, both of which signal through the Akt pathway. Neonatal rat cardiomyocytes were isolated from hearts of Sprague Dawley rat pups at 0 to 4 days old according to manufacturer's protocol using the Neomyt kit and plated on Surecoat plates in NS media containing serum (all from Cellultron Life Technologies, Baltimore, MD). Rat Schwann cells were plated in Poly-D-Lysine coated plates with Dulbecco's modified Eagle's media (DMEM) supplemented with fetal bovine serum (Thermo Fisher) and forskolin (Millipore Sigma).
(§3) After a 24-hour incubation in a humidified incubator maintained at 37° C. and 5% CO2, cardiomyocytes and Schwann cells were washed with serum free media and incubated an additional 16 hours in DMEM supplemented with bovine serum albumin (Sigma). Both cell lines were then treated with titrations of the neuregulin variant molecules for 15 minutes, upon which cells were lysed in lysis buffer (Meso Scale Discovery (MSD)). For detection of Akt phosphorylation, lysates were added to the Multi-Spot 96-Well 4-Spot Phospho (Serine 473)/Total Akt plates (MSD), incubated according to the manufacturer's protocol and read in the SECTOR Imager 6000 (MSD). For both cell assays, the percent phosphorylation of Akt was calculated by multiplying the phospho Akt signal by 2, then dividing by the phospho Akt signal added to the total Akt signal and then multiplying by 100. The phosphorylation of Akt data points were fitted using a log (agonist) versus response, variable slope (4 parameters) analysis in GraphPad Prism to generate EC50 curves. The CM % agonism reflect the top value of the data points.
What is called EC50 is the concentration giving half of the maximal effect. On to B1, for which the half-maximal effective concentration (EC50) came to 0.587 nM.
As to B2, the 50% effective concentration (EC50) was determined as 0.311 nM.
The same measure, in the same setting: next, B3: 0.557 nM; B4: 0.224 nM; B5: 0.33 nM.
As to B6, the 50% effective concentration (EC50) turned out to be 6.4 nM.
B7: the EC50 turned out to be 4.3 nM.

Still in this assay, the particulars now being: ratio of EC50s Schwann cells/cardiomyocytes.
In the case of B1, the “Selectivity SC/CM” value amounted to 6.165.
Turning to B2, the “Selectivity SC/CM” value is on record as 55.4019.
B3: the “Selectivity SC/CM” value is listed as over 10000.
On the same count and under the same terms, under B4 stands over 10000.
Turning to B5, the “Selectivity SC/CM” value is over 10000.
For the molecule B6, the “Selectivity SC/CM” value is over 10000.
With B7, the “Selectivity SC/CM” value is over 10000.

Staying with this assay, now noted: top value of the Akt phosphorylation data points in cardiomyocytes; wild-type control 100.
As to B1, the “CM % Agonism AVG” value came out at 97.51%.
Take B2: the “CM % Agonism AVG” value came to 91.65%.
On to B3, for which the “CM % Agonism AVG” value is given as 96.05%.
On to B4, for which the “CM % Agonism AVG” value was 97.95%.
For the molecule B5, the “CM % Agonism AVG” value stood at 99.83%.
As to B6, the “CM % Agonism AVG” value stood at 62.7%.
On to B7, for which the “CM % Agonism AVG” value was determined as 72.3%.

The target in another assay is T2, ErbB3 (Rattus norvegicus, UniProt Q62799).
T2 construct: forming the ErbB2/ErbB4 complex in cardiomyocytes and the ErbB2/ErbB3 complex in Schwann cells; endogenous in cells; host or cells: rat Schwann cells
T2 sequence (Q62799 20-1339): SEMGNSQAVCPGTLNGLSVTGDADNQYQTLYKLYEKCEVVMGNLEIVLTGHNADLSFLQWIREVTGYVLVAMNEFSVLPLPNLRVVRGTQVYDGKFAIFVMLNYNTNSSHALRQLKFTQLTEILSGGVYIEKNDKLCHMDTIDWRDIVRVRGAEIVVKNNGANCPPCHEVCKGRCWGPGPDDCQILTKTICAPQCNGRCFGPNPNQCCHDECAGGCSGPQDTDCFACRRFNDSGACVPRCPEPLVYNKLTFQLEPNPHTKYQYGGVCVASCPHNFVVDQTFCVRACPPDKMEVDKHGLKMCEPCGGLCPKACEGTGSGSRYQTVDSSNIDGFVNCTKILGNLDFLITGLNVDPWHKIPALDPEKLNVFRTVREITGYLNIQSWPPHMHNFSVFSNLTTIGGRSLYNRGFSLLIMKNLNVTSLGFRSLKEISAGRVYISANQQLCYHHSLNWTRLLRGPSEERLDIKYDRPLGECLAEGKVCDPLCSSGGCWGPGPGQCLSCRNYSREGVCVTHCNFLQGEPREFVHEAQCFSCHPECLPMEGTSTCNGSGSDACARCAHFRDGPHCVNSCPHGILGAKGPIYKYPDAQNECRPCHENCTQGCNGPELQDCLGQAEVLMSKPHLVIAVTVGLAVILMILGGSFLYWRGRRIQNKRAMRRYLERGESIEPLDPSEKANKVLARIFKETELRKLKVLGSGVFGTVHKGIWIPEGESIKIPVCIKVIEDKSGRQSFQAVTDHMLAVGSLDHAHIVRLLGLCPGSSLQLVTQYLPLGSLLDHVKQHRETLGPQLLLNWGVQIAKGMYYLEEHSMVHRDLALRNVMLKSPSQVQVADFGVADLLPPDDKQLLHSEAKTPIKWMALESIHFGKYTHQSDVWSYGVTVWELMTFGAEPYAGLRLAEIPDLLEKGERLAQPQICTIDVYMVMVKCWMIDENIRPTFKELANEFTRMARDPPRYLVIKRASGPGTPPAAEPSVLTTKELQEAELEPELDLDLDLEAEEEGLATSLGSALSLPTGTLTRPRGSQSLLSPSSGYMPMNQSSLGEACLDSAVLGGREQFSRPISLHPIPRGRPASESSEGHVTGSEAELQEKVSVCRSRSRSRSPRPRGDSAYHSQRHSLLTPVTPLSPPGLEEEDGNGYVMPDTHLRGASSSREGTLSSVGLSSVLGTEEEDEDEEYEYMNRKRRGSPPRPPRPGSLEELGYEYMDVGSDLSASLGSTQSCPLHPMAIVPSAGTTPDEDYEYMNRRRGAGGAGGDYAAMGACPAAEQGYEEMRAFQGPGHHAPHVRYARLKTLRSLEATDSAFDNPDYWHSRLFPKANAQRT
T2 sequence (P06494 23-1257 partner): as the sequence (P06494 23-1257 partner) above
Kind of assay: In vitro phosphorylation of Akt in rat Schwann cells. The class given is cell-based. The following applies: Akt (Serine 473) phosphorylation, 15 minutes treatment. The method, then:
as §1, §2, §3
In the case of B6, the “Schwann cells (SC) (ErbB3) Avg EC50 (M)” value is “inactive”.
On the same count and under the same terms, next, B7: “inactive”.

Staying with this assay, now noted: Akt (Serine 473) phosphorylation, 15 minutes treatment, read-out: Schwann cells (SC) (ErbB3) Avg EC50.
As to B1, the EC50 turned out to be 3.62 nM.
On the same count and under the same terms, under B2 stands 17.2 nM; under B3, 10000 nM; under B4, 10000 nM.
Regarding B5, the EC50 came out at 10000 nM.
